The target in this test is CD177 (UniProt Q8N6Q3). Description: SPR; Biacore T200; CD177 amine coupled to a CM5 chip (about 770 counts for kinetic measurements); PR3 or AAT as soluble analytes in 10 mM HEPES, 150 mM NaCl, 0.05% Tween20; 30 μL/minute; 25°C. In general terms: Surface plasmon resonance follows binding to a sensor surface in real time, without labels.

B1: purified proteinase 3 (enzyme)
chain: IVGGHEAQPHSRPYMASLQMRGNPGSHFCGGTLIHPSFVLTAAHCLRDIPQRLVNVVLGAHNVRTQEPTQQHFSVAQVFLNNYDAENKLNDVLLIQLSSPANLSASVATVQLPQQDQPVPHGTQCLAMGWGRVGAHDPPAQVLQELNVTVVTFFCRPHNICTFVPRRKAGICFGDSGGPLICDGIIQGIDSFVIWGCATRLFPDFFTRVALYVDWIRSTLR
As usually defined, the Kd is the equilibrium constant for the complex coming apart. High values mean a looser complex, low ones a tighter complex. The molecule B1 had a Kd of 20 nM.

The values are drawn from PMC9711875.
